How the values were obtained:
[1] = target: the molecule itself; test: cryo-EM structure
[2] = target: the molecule itself; test: cryo-EM structure; remark: listed apart in the source

B1: human MICU2 (subunit of the purified uniplex) (natural protein, UniProt Q8IYU8 23-434, looked up)
chain: AVSRQAVRSPGPLAAAVAGAALAGAGAAWHHSRVSVAARDGSFTVSAQKNVEHGIIYIGKPSLRKQRFMQFSSLEHEGEYYMTPRDFLFSVMFEQMERKTSVKKLTKKDIEDTLSGIQTAGCGSTFFRDLGDKGLISYTEYLFLLTILTKPHSGFHVAFKMLDTDGNEMIEKREFFKLQKIISKQDDLMTVKTNETGYQEAIVKEPEINTTLQMRFFGKRGQRKLHYKEFRRFMENLQTEIQEMEFLQFSKGLSFMRKEDFAEWLLFFTNTENKDIYWKNVREKLSAGESISLDEFKSFCHFTTHLEDFAIAMQMFSLAHRPVRLAEFKRAVKVATGQELSNNILDTVFKIFDLDGDECLSHEEFLGVLKNRMHRGLWVPQHQSIQEYWKCVKKESIKGVKEVWKQAGKGLF
modifications: disulfide to MICU1 (C413 of MICU2 and C463 of MICU1 in range)
binding result [1]: binds

B2: human MCU (subunit of the purified uniplex) (natural protein, UniProt Q8NE86 51-351, looked up)
chain: VHQRIASWQNLGAVYCSTVVPSDDVTVVYQNGLPVISVRLPSRRERCQFTLKPISDSVGVFLRQLQEEDRGIDRVAIYSPDGVRVAASTGIDLLLLDDFKLVINDLTYHVRPPKRDLLSHENAATLNDVKTLVQQLYTTLCIEQHQLNKERELIERLEDLKEQLAPLEKVRIEISRKAEKRTTLVLWGGLAYMATQFGILARLTWWEYSWDIMEPVTYFITYGSAMAMYAYFVMTRQEYVYPEARDRQYLLFFHKGAKKSRFDLEKYNQLKDAIAQAEMDLKRLRDPLQVHLPLRQIGEKD
stoichiometry N [2]: 4
